# In patent publication US20200377563A1 (Pieris, published 2020):
# Substitutions are numbered along the chain they refer to. Where “and” joins values, the source holds several entries; their conditions need not be identical. Equal values may be shown once. Read-outs that look alike come from different tables or passages of the source.
# B1: benchmark antibody 2 (antibody, human IgG4, kappa, V domains shown)
# VH: QVQLVQSGAEVKKPGSSVKVSCKASGYSFTDYHISWVRQAPGQGLEWMGVINPEYGTTDYNQRFKGRVTITADESTSTAYMELSSLRSEDTAVYYCARYDYFTGTGAYWGQGTLVTVSS
# VL: DIVMTQTPLSLSVTPGQPASISCRSSQSLKHSRGNTFLHWYLQKPGQSPQLLIYKVSNRFIGVPDRFSGSGSGTDFTLKISRVEAEDVGVYYCSQSTHYPFTFGQGTKLEIKR
# B2: mouse IL-23 (ligand)
# chain 1: VPRSSSPDWAQCQQLSRNLCMLAWNAHAPAGHMNLLREEEDEETKNNVPRIQCEDGCDPQGLKDNSQFCLQRIRQGLAFYKHLLDSDIFKGEPALLPDSPMEQLHTSLLGLSQLLQPEDHPRETQQMPSLSSSQQWQRPLLRSKILRSLQAFLAIAARVFAHGAATLTEPLVPTA
# chain 2: MWELEKDVYVVEVDWTPDAPGETVNLTCDTPEEDDITWTSDQRHGVIGSGKTLTITVKEFLDAGQYTCHKGGETLSHSHLLLHKKENGIWSTEILKNFKNKTFLKCEAPNYSGRFTCSWLVQRNMDLKFNIKSSSSSPDSRAVTCGMASLSAEKVTLDQRDYEKYSVSCQEDVTCPTAEETLPIELALEARQQNKYENYSTSFFIRDIIKPDPPKNLQMKPLKNSQVEVSWEYPDSWSTPHSYFSLKFFVRIQRKKEKMKETEEGCNQKGAFLVEKTSTEVQCKGGNVCVQAQDRYYNSSCSKWACVPCRVRS
# notes: also called mIL-23
# B3: lipocalin mutein SEQ ID NO: 46 (designed binder)
# chain: QDSTSDLIPAPPLSKVPLQQNFQDNQFHGKWYVVGEAGNLLLREDKDPRKMTATIYELREDKSYDVTRVEFGVKTYKYQIGTFVPGSQPGEFTLGGIKSMPGMTSFLVRVVSTDYNQHAMVFFKYVYQNREYFEITLYGRTKELTSELKENFIRFSKSLGLPENHIVFPVPIDQAIDG
# B4: lipocalin mutein SEQ ID NO: 45 (designed binder)
# chain: B3 chain with L41I, R59K, Y76R, Q79R, D114N
# B5: fusion protein of SEQ ID NO: 7 (designed binder)
# chain: QDSTSDLIPAPPLSKVPLQQNFQDNQFHGKWYVVGEAGNLLLREDKDPRKMTATIYELKEDKSYDVTRVEFGAKTYKYQIGTFVPGSQPGEFTLGGIESMPGMTSFLVRVVSTNYNQHAIVFFKYVYQNREYFEITLYGRTKELTSELKENFIRFSKSLGLPENHIVFPVPIDQAIDGSGGGGSLAEAKEAANAELDSYGVSDFYKRLIDKAKTVEGVEALKDAILAALPSAWSHPQFEK
# B6: benchmark 3 (antibody, human IgG1, kappa, V domains shown)
# VH: QVQLVQSGAEVKKPGASVKVSCKVSGKTFWSYGINWVRQAPGKGLEWMGYIYIGTGYTEPNPKYKGRVTMTEDTSTDTAYMELSSLRSEDTAVYYCATIGGYYGNFDQWGQGTTVTVSS
# VL: DVVMTQSPLSLPVTLGQPASISCRSSQSLLISGGKTYLNWFQQRPGQSPRRLIYLVSKLDQGVPDRFSGSGSGTDFTLKISRVEAEDVGVYYCWQGTYFPLTFGQGTKLEIKR
# B7: human IL-23 (ligand)
# chain 1: RAVPGGSSPAWTQCQQLSQKLCTLAWSAHPLVGHMDLREEGDEETTNDVPHIQCGDGCDPQGLRDNSQFCLQRIHQGLIFYEKLLGSDIFTGEPSLLPDSPVGQLHASLLGLSQLLQPEGHHWETQQIPSLSPSQPWQRLLLRFKILRSLQAFVAVAARVFAHGAATLSP
# chain 2: IWELKKDVYVVELDWYPDAPGEMVVLTCDTPEEDGITWTLDQSSEVLGSGKTLTIQVKEFGDAGQYTCHKGGEVLSHSLLLLHKKEDGIWSTDILKDQKEPKNKTFLRCEAKNYSGRFTCWWLTTISTDLTFSVKSSRGSSDPQGVTCGAATLSAERVRGDNKEYEYSVECQEDSACPAAEESLPIEVMVDAVHKLKYENYTSSFFIRDIIKPDPPKNLQLKPLKNSRQVEVSWEYPDTWSTPHSYFSLTFCVQVQGKSKREKKDRVFTDKTSATVICRKNASISVRAQDRYYSSSWSEWASVPCS
# notes: Heterodimer of p19 and p40; Biotinylated in the ELISA formats; also called hIL-23; hIL23
# B8: marmoset IL-17A (ligand)
# chain: GIASPQNPGCPNAEDKNFPRTVMVNLNIRNRNTNSKRASDYYNRSSSPWNLHRNEDPERYPSVIWEAKCRHLGCVDADGNVDYHMNSVPIQQEILVLRREPRHCTNSFRLEKMLVSVGCTCVTPIVRHVA
# notes: also called marmoset monkey IL-17A
# B9: negative control SEQ ID NO: 43 (other)
# chain: QDSTSDLIPAPPLSKVPLQQNFQDNQFQGKWYVVGLAGNAILREDKDPQKMYATIYELKEDKSYNVTSVLFRKKKCDYWIRTFVPGCQPGEFTLGNIKSYPGLTSYLVRVVSTNYNQHAMVFFKKVSQNREYFKITLYGRTKELTSELKENFIRFSKSLGLPENHIVFPVPIDQCIDG
# B10: cynomolgus monkey IL-17A (ligand)
# chain: GIAIPRNSGCPNSEDKNFPRTVMVNLNIHNRNTSTNPKRSSDYYNRSTSPWNLHRNEDPERYPSVIWEAKCRHLGCVKADGNVDYHMNSVPIQQEILVLRREPRHCPNSFRLEKILVSVGCTCVTPIVHHVA
# notes: also called cIL-17A
# Experiments:
# human IL-17A = human IL-17A (human, UniProt Q16552 24-155, limits assumed); assay: cell-based or functional assay
# [1] = target: T1, lipocalin mutein of SEQ ID NO: 2; assay: solution competition ELISA: 0.5 nM SEQ ID NO: 2 pre-incubated with varied ligand, free mutein captured on immobilised biotinylated hIL-23
# T1 construct: Mutein of human lipocalin 2 (NGAL); Also used as negative control in the IL-17A cell assay; also called hNGAL mutein
# human IL-23 [2] = target: B7; assay: cell-based or functional assay
# human IL-23 [3] = target: B7; assay: SPR (Biacore T200), hIL-23 amine-coupled on chip, mutein as analyte
# human IL-23 [4] = target: B7; assay: competition ELISA (MSD), biotinylated hIL-23 pre-incubated with binder, free hIL-23 captured on coated hIL-23R
# human IL-23 [5] = target: B7; assay: SPR (Biacore T200), biotinylated binder captured on CAP chip, hIL-23 as analyte, buffer with 350 mM NaCl
# Description: To this end, undiluted Biotin CAPture Reagent was applied at a flow rate of 2 μL/min for 300 s. […] The reference channel was loaded with Biotin CAPture Reagent only.
# Applying a flow rate of 30 μL/min, a single cycle kinetics approach was used with a sample contact time of 300 s and a dissociation time of 4000 s or 7200 s. After ligand immobilization, all 5 concentrations were applied consecutively in ascending order before the dissociation was monitored. All measurements were performed at 25° C.
# human IL-23 [6] = target: B7; assay: competition ELISA (MSD), biotinylated hIL-23 pre-incubated with binder, free hIL-23 captured on coated hIL-23R; remark: listed apart in the source
# Description: (§1) All incubation steps were performed with shaking 300 rpm, and the plate was washed after each incubation step with 80 μl PBS/0.05% Tween 20 for five times using a Biotek EL405 select CW washer. […] After washing, the receptor-coated wells were blocked with 60 μl PBS-T/BSA for 1 h at room temperature.
# (§2) After washing, 60 μl MSD Read Buffer T (2×) was added to each well and the plate was read within 15 min.
# (§3) The resulting ECL signal was measured using the SECTOR Imager 2400 (Meso Scale Discovery).
# [7] = target: T2, lipocalin mutein of SEQ ID NO: 1; assay: solution competition ELISA: 0.25 nM SEQ ID NO: 1 pre-incubated with varied ligand, free mutein captured on immobilised biotinylated hIL-17A
# T2 construct: Mutein of human tear lipocalin; also called Tlc mutein
# T2 sequence (chain, as listed by the source): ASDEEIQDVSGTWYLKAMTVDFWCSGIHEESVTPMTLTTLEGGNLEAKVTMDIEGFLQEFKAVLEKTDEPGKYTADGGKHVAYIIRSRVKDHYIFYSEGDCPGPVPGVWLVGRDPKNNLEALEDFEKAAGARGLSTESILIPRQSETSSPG
# Description: In the following detailed experimental protocol, incubation and washing steps were performed as described above in the competition ELISA protocol. A 384-well plate suitable for fluorescence measurements (Greiner FLUOTRAC™ 600, black flat bottom, high-binding) was coated with 20 μl of Neutravidin at a concentration of 5 μg/ml in PBS over night at 4° C. After washing, the Neutravidin-coated wells were blocked with 100 μl blocking buffer (PBS-T/BSA) for 1h at room temperature.
# human IL-23 [8] = target: B7; assay: competition ELISA (MSD): biotinylated hIL-23 tracer pre-incubated with the titrated control, free hIL-23 captured on coated soluble hIL-23R
# Description: as §1, §2, §3
binder,measurement,setting,value
B1,"IL-17A-induced G-CSF secretion in U87-MG cells, EC50, average",human IL-17A,0.12 nM
same,"IL-17A-induced G-CSF secretion in U87-MG cells, EC50, single experiment",human IL-17A,0.14 nM and 0.1 nM
B2,IC50,[1],0.5 nM
B3,"hIL-23-induced proliferation of Ba/F3 cells with hIL-23R and hIL-12Rβ1, EC50",human IL-23 [2],5.4 nM
same,Kd,human IL-23 [3],0.6 nM
same,koff,human IL-23 [3],4e-05 s⁻¹
same,kon,human IL-23 [3],70000 M⁻¹ s⁻¹
same,IC50,human IL-23 [4],1.1 nM
B4,"hIL-23-induced proliferation of Ba/F3 cells with hIL-23R and hIL-12Rβ1, EC50",human IL-23 [2],3.7 nM
same,Kd,human IL-23 [3],0.1 nM
same,koff,human IL-23 [3],3e-05 s⁻¹
same,kon,human IL-23 [3],300000 M⁻¹ s⁻¹
same,IC50,human IL-23 [4],0.1 nM
B5,Kd,human IL-23 [5],2.4 nM
same,IC50,human IL-23 [6],1.11 nM
B6,"hIL-23-induced proliferation of Ba/F3 cells with hIL-23R and hIL-12Rβ1, EC50, average",human IL-23 [2],3 nM
same,"hIL-23-induced proliferation of Ba/F3 cells, EC50, single experiment",human IL-23 [2],3.1 nM and 2.9 nM
B7,IC50,[1],0.9 nM
B8,IC50,[7],0.2 nM
B9,binding result,human IL-23 [8],no binding
B10,IC50,[7],0.1 nM
